Experimental findings from US20070212355A1 (priority 2005, published 2007) are described below.

Like-named read-outs stand apart in the source and are kept apart here. Ends that are not written are not given here.

In general, EC50 refers to the concentration needed to bring the measured effect to its halfway point.

In data set [1] the target is T1, mutated human GLP-2R (Homo sapiens, UniProt O95838, E512D/G511A/L513V).
T1 construct: expressed in transfected cells; host or cells: HEK 293E clonal cell line
T1 sequence (O95838 1-553 G511A/E512D/L513V): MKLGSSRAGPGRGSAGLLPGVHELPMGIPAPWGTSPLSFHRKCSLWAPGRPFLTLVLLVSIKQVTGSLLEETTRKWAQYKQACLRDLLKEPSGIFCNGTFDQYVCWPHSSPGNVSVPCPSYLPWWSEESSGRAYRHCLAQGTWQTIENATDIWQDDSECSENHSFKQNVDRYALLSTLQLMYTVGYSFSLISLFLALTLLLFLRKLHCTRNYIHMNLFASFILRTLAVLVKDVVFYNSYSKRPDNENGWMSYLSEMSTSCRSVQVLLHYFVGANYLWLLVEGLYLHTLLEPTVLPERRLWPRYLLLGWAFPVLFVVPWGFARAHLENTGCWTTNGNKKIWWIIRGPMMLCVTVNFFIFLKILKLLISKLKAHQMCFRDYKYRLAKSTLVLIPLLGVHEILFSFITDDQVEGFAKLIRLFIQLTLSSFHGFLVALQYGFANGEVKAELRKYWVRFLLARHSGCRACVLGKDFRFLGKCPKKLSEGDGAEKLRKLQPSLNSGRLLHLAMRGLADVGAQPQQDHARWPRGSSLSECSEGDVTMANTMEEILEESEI
The data set can be described thus: cAMP expression assay in HEK 293E clonal cell line expressing mutated human GLP-2R. It is filed as cell-based. Conditions: for activity relative to wild type GLP-2 (times less): from Table 5 EC50 values. From the text:
To achieve this goal, a clonal cell line expressing a mutated human GLP-2R was generated by transfecting HEK 293E cells. The mutated human GLP-2R differs from the wild-type human GLP-2R (SEQ ID NO: 35) at three amino acid positions within the C-terminal intracellular region (SEQ ID NO: 36).
The cAMP expression was quantitated using the cAMP Direct Screen System (Cat. No. CSD 200, Applied Biosystems, Bedford, Mass.).
This assay was based on the cAMP Direct Screen System from Applied Biosystems utilizing a cell line expressing mutated huGLP-2R in HEK 293E cells. Peptide at concentrations ranging from 0.01 nM to 1.0 uM in PBS with 0.5% BSA was added to ˜50,000 cells suspended in 96-well plates. After a 30-minute incubation at 37° C., Lysis Buffer followed by luminescence reagents (Applied Biosystems) was added according to the manufacturers' procedures (Applied Biosystems Luminescence protocol: cAMP-Screen Direct System). Luminescence was quantitated using a TopCount liquid scintillation analyzer (PerkinElmer), and data was processed using Softmax software (Molecular Devices Corporation).

Data set [2] can be described thus: CD spectra secondary structure of peptides. It is filed as physicochemical. Conditions: 0.2 mg/mL in PBS, 25° C. The method, then:
The secondary structures of tested peptides were determined using 0.2 mg/mL peptide solutions in PBS. Briefly, CD spectra were collected in triplicate at 1 nm intervals at 25° C. in 0.1 cm path length cell. Secondary structures were determined by fitting of the CD spectra using CD spectra software (CD Spectra Deconvolution software 2.1). All tested peptides contained peaks corresponding to the presence of alpha helices.

Data set [3] is described as follows: SEC-SLS self-association of peptides in PBS (pH 7.5). Conditions: 1 mg/ml. It is filed as physicochemical. The protocol: The self-association poses a challenge to the development and manufacturing of a homogeneous therapeutic.
Solution molecular weight of the peptides was measured by SEC-SLS. Briefly, peptide solutions in PBS (pH 7.5) at 0.4 to 2.0 mg/mL were fractionated over a Superdex peptide column (Amersham Pharmacia). The eluted peaks were monitored by static light scattering at 690 nm and solution molecular weight was determined at UV 280 nm using the Astra software package (Wyatt Inc.).

The target of data set [4] is T2, mutated human GLP-2R (human, UniProt O95838 1-553).
T2 chain: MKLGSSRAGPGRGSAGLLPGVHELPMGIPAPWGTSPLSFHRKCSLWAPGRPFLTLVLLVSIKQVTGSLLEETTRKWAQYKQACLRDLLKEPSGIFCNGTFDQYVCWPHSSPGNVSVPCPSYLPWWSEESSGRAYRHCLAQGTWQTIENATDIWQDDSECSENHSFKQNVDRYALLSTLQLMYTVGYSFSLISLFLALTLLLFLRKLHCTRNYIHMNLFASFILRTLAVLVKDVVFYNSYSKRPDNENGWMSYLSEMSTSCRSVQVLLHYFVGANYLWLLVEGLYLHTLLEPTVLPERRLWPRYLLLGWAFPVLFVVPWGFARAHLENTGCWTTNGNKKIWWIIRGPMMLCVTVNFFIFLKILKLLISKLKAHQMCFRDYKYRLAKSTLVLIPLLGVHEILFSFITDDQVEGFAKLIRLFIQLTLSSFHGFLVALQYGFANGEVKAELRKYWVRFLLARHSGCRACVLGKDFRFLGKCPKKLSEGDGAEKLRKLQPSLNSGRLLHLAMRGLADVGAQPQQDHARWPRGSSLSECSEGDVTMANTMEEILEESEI
The data set can be described thus: cell-based or functional assay.

In data set [5] the target is mutated human GLP-2R (human) (UniProt O95838). The data set can be described thus: cell-based or functional assay.
[6] abbreviates: Table 1, mimetibodies with variable linker length / V2 variant, read-out: EC50.
Setting [7] is: Table 2, mimetibodies with Pro substitution, read-out: EC50.

Consider “HGDGSFSDEMNTILDGQAARDFINWLIQTKITD [SEQ ID NO: 55]”, for which the “activity relative to wild type GLP-2 (times less)” value at mutated human GLP-2R [1] is recorded as 2 ×. The “Random coil (percentage)” value in data set [2] was found to be 41.4%. The “Helix (percentage of helical structure)” value in data set [2] (listed as GLP-2(A2G, N16G, L17Q)) is 17.0%. The “SEC-SLS elution / self-association state” value in data set [3] is on record as “mainly monomeric peptide”.

Turning to “HGDGSFSDEMNTILDNQAARDFINWLIQTKITD [SEQ ID NO: 54]”, the “activity relative to wild type GLP-2 (times less)” value on mutated human GLP-2R [1] was determined as 3 ×. Also, the “Random coil (percentage)” value in data set [2] is on record as 41.8%. In data set [2] (listed as GLP-2(A2G, L17Q)), the “Helix (percentage of helical structure)” value came out at 16.9%. The “SEC-SLS elution / self-association state” value in data set [3] is on record as “mainly monomeric peptide”.

In the case of “HSDGSFSDEMNTILDNLAARDFINWLIQTKITD [SEQ ID NO: 2, reference compound]”, on mutated human GLP-2R [1] (Example 2, 30 minutes incubation, mimetibodies vs corresponding peptides, read-out: EC50, stimulation of cAMP expression), the EC50 was 0.5 nM.

Regarding “SEQ ID NO: 6: A2G GLP-2 mimetibody linker variant; core HGDGSFSDEMNTILDNLAARDFINWLIQTKITDGGGGSCPPCP (cysteine pairing not given here; also: core of a mimetibody, fused to further protein chains)”, the EC50 with mutated human GLP-2R [1] (setting [6]) was 40 nM.

As to “SEQ ID NO: 7: A2G GLP-2 mimetibody linker variant; core HGDGSFSDEMNTILDNLAARDFINWLIQTKITDGGGGSGGGGSCPPCP (cysteine pairing not given here; also: core of a mimetibody, fused to further protein chains)”, the EC50 in the data set with mutated human GLP-2R [1] (setting [6]) was 22.5 nM.

As for “SEQ ID NO: 8: A2G GLP-2 mimetibody linker variant; core HGDGSFSDEMNTILDNLAARDFINWLIQTKITDGGGGSGGGGSGGGGSCPPCP (cysteine pairing not given here; also: core of a mimetibody, fused to further protein chains)”, the EC50 with mutated human GLP-2R [1] (setting [6]) stood at 12.7 nM.

On to “SEQ ID NO: 9: A2G GLP-2 mimetibody linker variant; core HGDGSFSDEMNTILDNLAARDFINWLIQTKITDGGGGSGGGGSGGGGSGGGGSCPPCP (cysteine pairing not given here; also: core of a mimetibody, fused to further protein chains)”, for which the EC50 with mutated human GLP-2R [1] (setting [6]) worked out at 4.6 nM.

Take “SEQ ID NO: 11: A2G GLP-2 mimetibody V2 region variant; core […] (HGDGSFSDEMNTILDNLAARDFINWLIQTKITDGSGGGSGALVAVSSESKYGPPCPPCP; chains of the parent or of the whole protein)”: the EC50 in the data set with mutated human GLP-2R [1] (setting [6]) amounted to 3.1 nM.

Consider “SEQ ID NO: 42: GLP-2 mimetibody Pro substitution variant; core HGDGSFSDEMNTILDNLAARDFINWLIQTKITDGSGGGSGALVPVSSESKYGPPCPPCP (Mimetibody)”, for which, in the data set with mutated human GLP-2R [1] (setting [7]), the EC50 amounted to 3.6 nM.

Consider “SEQ ID NO: 45: GLP-2 mimetibody Pro substitution variant; core […] (HGDGSFSDEMNTILDNLAARDFINWLIQTKITDGSGGGSGALVAVSSESKPGPPCPPCP)”, for which, in the data set with mutated human GLP-2R [1] (setting [7]), the EC50 turned out to be 5.8 nM.

With “SEQ ID NO: 79: GLP-1 peptide included as control in the characterization of the analogs [reference compound]”, in data set [2], the “Helix (percentage of helical structure)” value is listed as 16.8% and the “Random coil (percentage)” value stood at 41.9%. For the same molecule, the “SEC-SLS elution / self-association state” value in data set [3] is “single peak with molecular weight within the expected monomer size”.

Consider HSDGSFSDEMNTILDNLAARDFINWLIQTKITD [A2S GLP-2 peptide], for which, in the data set with mutated human GLP-2R [4], the “EC50, cAMP expression” value was 0.5 nM.

B1: SEQ ID NO: 10: A2G GLP-2 mimetibody linker variant; core HGDGSFSDEMNTILDNLAARDFINWLIQTKITDGGGGSGGGGSGGGGSGGGGSGGGGSCPPCP (protein)
chain: HGDGSFSDEMNTILDNLAARDFINWLIQTKITDGGGGSGGGGSGGGGSGGGGSGGGGSCPPCP
modifications: chains of the parent or of the whole protein
In the case of B1, the EC50 with mutated human GLP-2R [1] (setting [6]) is 2.1 nM.

B2: A2G GLP-2 mimetibody linker length variant SEQ ID NO: 6 (Fc fusion, part only; not given: CH2 and CH3 domains, part only)
chain, part: HGDGSFSDEMNTILDNLAARDFINWLIQTKITDGGGGSCPPCP
modifications: cysteine pairing not given here; also: partial core, CH2-CH3 domains follow in the full mimetibody
Molecule B2 showed an EC50 (nM), cAMP expression assay in data set [5] of 40 nM.

B3: A2G GLP-2 mimetibody V2 region variant SEQ ID NO: 11 (Fc fusion, not shown: a dimerising Fc or GST)
chain: HGDGSFSDEMNTILDNLAARDFINWLIQTKITDGSGGGSGALVAVSSESKYGPPCPPCP
In data set [5], B3 came in with an EC50 (nM), cAMP expression assay of 3.1 nM.

B4: GLP-2 mimetibody Pro substitution variant SEQ ID NO: 44 (Fc fusion, not shown: a dimerising Fc or GST)
chain: HGDGSFSDEMNTILDNLAARDFINWLIQTKITDGSGGGSGALVAVSPESKYGPPCPPCP
In the case of B4, in data set [5], the EC50 (nM), cAMP expression assay was 7.7 nM.

B5: GLP-2 mimetibody Pro substitution variant SEQ ID NO: 42 (Fc fusion, not shown: a dimerising Fc or GST)
chain: HGDGSFSDEMNTILDNLAARDFINWLIQTKITDGSGGGSGALVPVSSESKYGPPCPPCP
Molecule B5 yielded an EC50 (nM), cAMP expression assay in data set [5] of 3.6 nM.

B6: GLP-2 mimetibody Pro substitution variant SEQ ID NO: 45 (Fc fusion, not shown: a dimerising Fc or GST)
chain: HGDGSFSDEMNTILDNLAARDFINWLIQTKITDGSGGGSGALVAVSSESKPGPPCPPCP
In data set [5], B6 showed an EC50 (nM), cAMP expression assay of 5.8 nM.

B7: GLP-2 mimetibody Pro substitution variant SEQ ID NO: 43 (Fc fusion, not shown: a dimerising Fc or GST)
chain: HGDGSFSDEMNTILDNLAARDFINWLIQTKITDGSGGGSGALVAVPSESKYGPPCPPCP
In turn, B7 returned an EC50 (nM), cAMP expression assay in data set [5] of 4.8 nM.

B8: A2S GLP-2 IgG4 mimetibody (Fc fusion)
chain: HSDGSFSDEMNTILDNLAARDFINWLIQTKITDGSGGGSGTLVTVSSESKYGPPCPPCPAPEAAGGPSVFLFPPKPDTLMISRTPEVTCVVVDVSQEDPEVQFNWYVDGVEVHNAKTKPREEQFNSTYRVVSVLTVLHQDWLNGKEYKCKVSNKGLPSSIEKTISKAKGQPREPQVYTLPPSQEEMTKNQVSLTCLVKGFYPSDIAVEWESNGQPENNYKTTPPVLDSDGSFFLYSRLTVDKSRWQEGNVFSCSVMHEALHNHYTQKSLSLSLGK
With B8, in the data set with mutated human GLP-2R [4], the “EC50, cAMP expression” value was 2.2 nM and the “potency in cAMP expression assay, fold less than the corresponding peptide” value was approximately 4 fold.

B9: A2G GLP-2 mimetibody linker length variant SEQ ID NO: 7 (Fc fusion, part only; not given: Fc CH2 and CH3 domains, part only)
chain, part: HGDGSFSDEMNTILDNLAARDFINWLIQTKITDGGGGSGGGGSCPPCP
modifications: cysteine pairing not given here; also: partial core, CH2-CH3 domains follow in the full mimetibody
As to B9, the EC50 (nM), cAMP expression assay in data set [5] amounted to 22.5 nM.

B10: A2G GLP-2 mimetibody linker length variant SEQ ID NO: 8 (Fc fusion, part only; not given: CH2 and CH3 domains, part only)
chain, part: HGDGSFSDEMNTILDNLAARDFINWLIQTKITDGGGGSGGGGSGGGGSCPPCP
modifications: cysteine pairing not given here; also: partial core, CH2-CH3 domains follow in the full mimetibody
Regarding B10, the EC50 (nM), cAMP expression assay in data set [5] stood at 12.7 nM.

B11: A2G GLP-2 mimetibody linker length variant SEQ ID NO: 9 (Fc fusion, part only; not given: CH2 and CH3 domains, part only)
chain, part: HGDGSFSDEMNTILDNLAARDFINWLIQTKITDGGGGSGGGGSGGGGSGGGGSCPPCP
modifications: cysteine pairing not given here; also: partial core, CH2-CH3 domains follow in the full mimetibody
B11: the EC50 (nM), cAMP expression assay in data set [5] is 4.6 nM.
